Assay results: publication PMC8443706, “Functionally diverse heteromeric traps for ligands of the transforming growth factor-β superfamily” (Scientific Reports, 2021)

B1: activin A (ligand, human, UniProt P08476 311-426, looked up)
chain: GLECDGKVNICCKKQFFVSFKDIGWNDWIIAPSGYHANYCEGECPSHIAGTSGSSLSFHSTVINHYRMRGHSPFANLKSCCVPTKLRPMSMLYYDDGQNIIKKDIQNMIVEECGCS
notes: source: generated in house
B2: GDF3 (ligand, human, UniProt Q9NR23 251-364, looked up)
chain: AAIPVPKLSCKNLCHRHQLFINFRDLGWHKWIIAPKGFMANYCHGECPFSLTISLNSSNYAFMQALMHAVDPEIPQAVCIPTKLSPISMLYQDNNDNVILRHYEDMVVDECGCG
notes: source: bought: R&D Systems
B3: BMP9 (ligand, human, UniProt Q9UK05 320-429, looked up)
chain: SAGAGSHCQKTSLRVNFEDIGWDSWIIAPKEYEAYECKGGCFFPLADDVTPTKHAIVQTLVHLKFPTKVGKACCVPTKLSPISVLYKDDMGVPTLKYHYEGMSVAECGCR
notes: source: generated in house
B4: BMP7 (ligand, human, UniProt P18075 293-431, looked up)
chain: STGSKQRSQNRSKTPKNQEALRMANVAENSSSDQRQACKKHELYVSFRDLGWQDWIIAPEGYAAYYCEGECAFPLNSYMNATNHAIVQTLVHFINPETVPKPCCAPTQLNAISVLYFDDSSNVILKKYRNMVVRACGCH
notes: source: bought: R&D Systems
B5: BMP4 (ligand, human, UniProt P12644 293-408, looked up)
chain: SPKHHSQRARKKNKNCRRHSLYVDFSDVGWNDWIVAPPGYQAFYCHGDCPFPLADHLNSTNHAIVQTLVNSVNSSIPKACCVPTELSAISMLYLDEYDKVVLKNYQEMVVEGCGCR
notes: source: bought: R&D Systems
B6: BMP6 (ligand, human, UniProt P22004 375-513, looked up)
chain: SASSRRRQQSRNRSTQSQDVARVSSASDYNSSELKTACRKHELYVSFQDLGWQDWIIAPKGYAANYCDGECSFPLNAHMNATNHAIVQTLVHLMNPEYVPKPCCAPTKLNAISVLYFDDNSNVILKKYRNMVVRACGCH
notes: source: bought: R&D Systems
B7: BMP10 (ligand, human, UniProt O95393 317-424, looked up)
chain: NAKGNYCKRTPLYIDFKEIGWDSWIIAPPGYEAYECRGVCNYPLAEHLTPTKHAIIQALVHLKNSQKASKACCVPTKLEPISILYLDKGVVTYKFKYEGMAVSECGCR
notes: source: bought: R&D Systems
B8: activin B (ligand, human, UniProt P09529 293-407, looked up)
chain: GLECDGRTNLCCRQQFFIDFRLIGWNDWIIAPTGYYGNYCEGSCPAYLAGVPGSASSFHTAVVNQYRMRGLNPGTVNSCCIPTKLSTMSMLYFDDEYNIVKRDVPNMIVEECGCA
notes: source: generated in house
B9: GDF11 (ligand, human, UniProt O95390 299-407, looked up)
chain: NLGLDCDEHSSESRCCRYPLTVDFEAFGWDWIIAPKRYKANYCSGQCEYMFMQKYPHTHLVQQANPRGSAGPCCTPTKMSPINMLYFNDKQQIIYGKIPGMVVDRCGCS
notes: source: generated in house
B10: ALK3-Fc:ALK3-Fc homodimer (human ALK3 ECD fused to human IgG1 Fc) (Fc fusion, UniProt P36894 24-152, looked up)
chain: QNLDSMLHGTGMKSDSDQKKSENGVTLAPEDTLPFLKCYCSGHCPDDAINNTCITNGHCFAIIEEDDQGETTLASGCMKYEGSDFQCKDSPKAQLRRTIECCRTNLCNQYLQPTLPPVVIGPFFDGSIR
notes: not shown: Fc (human IgG1), C-terminal, kept

Biological target: T1, IIB-Fc:ALK3-Fc heterodimer (human ActRIIB ECD-Fc paired with human ALK3 ECD-Fc) (human, UniProt Q13705-1 19-134; P36894 24-152)
T1 construct: activin receptor type IIB (ActRIIB) extracellular domain, human, aa 19-134 of NP_001097.2; copies: 1 + 1
Test: SPR; same experiment as a1 (Biacore 8K, 37 °C, receptor dimers captured by anti-human Fc, HBS-EP+ with 350 mM NaCl added and 0.5 mg/mL BSA) but fitted with a bivalent analyte model (bold cells of Table 1); the first binding step is the one considered
Conditions: both partners purified

| Kd | koff | kon | Binder |
| --- | --- | --- | --- |
| 0.164 nM | 0.00733 s⁻¹ | 4.47e+07 M⁻¹ s⁻¹ | B1 |
| > 10 nM | > 0.01 s⁻¹ | 900000 M⁻¹ s⁻¹ | B2 |
| 1.76 nM | > 0.01 s⁻¹ | 9.7e+06 M⁻¹ s⁻¹ | B3 |

Biological target: T2, IIB-Fc:ALK4-Fc heterodimer (human ActRIIB ECD-Fc paired with human ALK4 ECD-Fc) (human, UniProt Q13705-1 19-134; P36896-1 24-126)
T2 construct: activin receptor type IIB (ActRIIB) extracellular domain, human, aa 19-134 of NP_001097.2; copies: 1 + 1
T2 sequence (Q13705 19-134, chain 1 of 2): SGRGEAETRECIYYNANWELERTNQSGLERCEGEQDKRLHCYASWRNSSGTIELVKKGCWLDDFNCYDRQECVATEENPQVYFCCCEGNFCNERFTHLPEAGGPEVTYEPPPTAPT
T2 sequence (P36896 24-126, chain 2 of 2): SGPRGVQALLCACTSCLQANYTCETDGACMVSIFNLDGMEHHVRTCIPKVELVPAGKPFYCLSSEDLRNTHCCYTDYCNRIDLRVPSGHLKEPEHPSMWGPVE
Test: as above
Conditions: both partners purified

| Kd | koff | kon | Binder |
| --- | --- | --- | --- |
| > 10 nM | > 0.01 s⁻¹ | 800000 M⁻¹ s⁻¹ | B4 |
| > 10 nM | > 0.01 s⁻¹ | 1.1e+06 M⁻¹ s⁻¹ | B2 |
| 1.36 nM | > 0.01 s⁻¹ | 8.9e+06 M⁻¹ s⁻¹ | B3 |

Biological target: T3, IIB-Fc:ALK7-Fc heterodimer (human ActRIIB ECD-Fc paired with human ALK7 ECD-Fc) (human, UniProt Q13705-1 19-134; Q8NER5-1 25-113)
T3 construct: activin receptor type IIB (ActRIIB) extracellular domain, human, aa 19-134 of NP_001097.2; activin receptor-like kinase 7 (ALK7) extracellular domain, human, aa 25-113 of NP_660302.2; copies: 1 + 1
T3 sequence (Q13705 19-134, chain 1 of 2): as the sequence (Q13705 19-134, chain 1 of 2) above
T3 sequence (Q8NER5 25-113, chain 2 of 2): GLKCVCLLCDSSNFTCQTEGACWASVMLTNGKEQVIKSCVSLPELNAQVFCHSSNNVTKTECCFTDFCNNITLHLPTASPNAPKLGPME
Test: as above
Conditions: both partners purified

| Kd | koff | kon | Binder |
| --- | --- | --- | --- |
| > 10 nM | > 0.01 s⁻¹ | 700000 M⁻¹ s⁻¹ | B4 |
| 0.41 nM | 0.00815 s⁻¹ | 2e+07 M⁻¹ s⁻¹ | B1 |
| > 10 nM | > 0.01 s⁻¹ | 1.1e+06 M⁻¹ s⁻¹ | B2 |
| 2.3 nM | > 0.01 s⁻¹ | 7.1e+06 M⁻¹ s⁻¹ | B3 |

Biological target: T1, IIB-Fc:ALK3-Fc heterodimer (human …)
Test: SPR; Biacore 8K, 37 °C; Fc-fusion receptor dimers captured by anti-human Fc antibody on a CM5 chip (100-150 RU); ligands injected in two-fold dilution series (300 s association, 600 s dissociation); HBS-EP+ supplemented with 350 mM NaCl and 0.5 mg/mL BSA; 1:1 Langmuir model with a term for mass transport
Conditions: both partners purified

| Kd | koff | kon | Binder |
| --- | --- | --- | --- |
| 0.0041 nM | – | – | B5 |
| 0.046 nM | 0.000214 s⁻¹ | 4.6e+06 M⁻¹ s⁻¹ | B6 |
| 0.165 nM | 0.00197 s⁻¹ | 1.19e+07 M⁻¹ s⁻¹ | B4 |
| 0.0335 nM | 0.000719 s⁻¹ | 2.15e+07 M⁻¹ s⁻¹ | B7 |
| 0.0696 nM | 0.000335 s⁻¹ | 4.8e+06 M⁻¹ s⁻¹ | B8 |
| 0.0485 nM | 0.000641 s⁻¹ | 1.32e+07 M⁻¹ s⁻¹ | B9 |

Biological target: T2, IIB-Fc:ALK4-Fc heterodimer (human …)
Test: as above
Conditions: both partners purified

| Kd | koff | kon | Binder |
| --- | --- | --- | --- |
| 0.758 nM | 0.00573 s⁻¹ | 7.6e+06 M⁻¹ s⁻¹ | B6 |
| 0.067 nM | 0.0028 s⁻¹ | 4.18e+07 M⁻¹ s⁻¹ | B7 |
| 0.0153 nM | 8.07e-05 s⁻¹ | 5.3e+06 M⁻¹ s⁻¹ | B8 |
| 0.0184 nM | 0.000139 s⁻¹ | 7.4e+06 M⁻¹ s⁻¹ | B1 |
| 0.0108 nM | 0.000164 s⁻¹ | 1.52e+07 M⁻¹ s⁻¹ | B9 |

Biological target: T4, IIB-Fc:IIB-Fc homodimer (human ActRIIB ECD fused to human IgG1 Fc) (human, UniProt Q13705-1 19-134)
T4 construct: activin receptor type IIB (ActRIIB) extracellular domain, human, aa 19-134 of NP_001097.2; Chains linked by disulfide bonds between the Fc domains; a form with murine IgG2a Fc was used only in mice; also called ActRIIB-Fc homodimer; ActRIIB-Fc; not shown: Fc (human IgG1), C-terminal, kept
T4 sequence (Q13705 19-134): as the sequence (Q13705 19-134, chain 1 of 2) above
Test: as above
Conditions: both partners purified

| Kd | koff | kon | Binder |
| --- | --- | --- | --- |
| 5.43 nM | – | – | B5 |
| 0.0065 nM | 0.000121 s⁻¹ | 1.86e+07 M⁻¹ s⁻¹ | B7 |
| 0.0038 nM | 2.19e-05 s⁻¹ | 5.7e+06 M⁻¹ s⁻¹ | B8 |
| 0.0109 nM | 8.45e-05 s⁻¹ | 7.8e+06 M⁻¹ s⁻¹ | B1 |
| 0.64 nM | 0.00188 s⁻¹ | 2.9e+06 M⁻¹ s⁻¹ | B2 |
| 0.0933 nM | 0.0011 s⁻¹ | 1.24e+07 M⁻¹ s⁻¹ | B3 |
| 0.0039 nM | 7.56e-05 s⁻¹ | 1.94e+07 M⁻¹ s⁻¹ | B9 |

Biological target: B6
Test: as above
Conditions: both partners purified

| Kd | koff | kon | Binder |
| --- | --- | --- | --- |
| 9.03 nM | 0.00569 s⁻¹ | 600000 M⁻¹ s⁻¹ | B10 |

Biological target: T3, IIB-Fc:ALK7-Fc heterodimer (human …)
Test: as above
Conditions: both partners purified

| Kd | koff | kon | Binder |
| --- | --- | --- | --- |
| 0.715 nM | 0.00424 s⁻¹ | 5.9e+06 M⁻¹ s⁻¹ | B6 |
| 0.0706 nM | 0.00314 s⁻¹ | 4.45e+07 M⁻¹ s⁻¹ | B7 |
| 0.0153 nM | 0.000114 s⁻¹ | 7.4e+06 M⁻¹ s⁻¹ | B8 |
| 0.0474 nM | 0.000642 s⁻¹ | 1.35e+07 M⁻¹ s⁻¹ | B9 |
